The series relates to Escherichia coli TOP10. The experiment in a line: shrunken log2 fold change of peptide-encoding DNA abundance (4.5 h post-induction vs induction); higher = less antimicrobial activity (less host growth inhibition). The conditions noted are these: time post-induction: 4.5 h; library: site-saturation at positions 5, 18, 19, 20.
In the case of RRIRGRPPRLPRPRPRPVISPRP, the “shrunken log2 fold change” value amounted to 0.623.
With RRIRHRPPRLPRPRPRPANRPRP, the “shrunken log2 fold change” value was -0.129.
For the sequence RRIRCRPPRLPRPRPRPGAIPRP, the “shrunken log2 fold change” value is -0.0334.
Consider RRIRVRPPRLPRPRPRPSCHPRP, for which the “shrunken log2 fold change” value came to 0.292.
As to RRIRMRPPRLPRPRPRPGLYPRP, the “shrunken log2 fold change” value was -0.196.
Regarding RRIRDRPPRLPRPRPRPLLTPRP, the “shrunken log2 fold change” value was determined as 0.35.
RRIRYRPPRLPRPRPRPYLRPRP: the “shrunken log2 fold change” value was -0.00962.
Regarding RRIRPRPPRLPRPRPRPIQDPRP, the “shrunken log2 fold change” value was -0.239.
Turning to RRIRIRPPRLPRPRPRPYTHPRP, the “shrunken log2 fold change” value was -1.09.
Next, RRIRWRPPRLPRPRPRPKFCPRP: -0.116; RRIRDRPPRLPRPRPRPMAIPRP: 0.00911.
With RRIRIRPPRLPRPRPRPDYAPRP, the “shrunken log2 fold change” value was -0.154.
Turning to RRIRCRPPRLPRPRPRPFWLPRP, the “shrunken log2 fold change” value is -0.227.
Turning to RRIRIRPPRLPRPRPRPNIAPRP, the “shrunken log2 fold change” value was -0.407.
The figure for RRIRKRPPRLPRPRPRPHVLPRP is 0.0607; for RRIRQRPPRLPRPRPRPDVEPRP it is -0.0335.
Turning to RRIRRRPPRLPRPRPRPVQGPRP, the “shrunken log2 fold change” value amounted to 0.223.
In the case of RRIRHRPPRLPRPRPRPHFGPRP, the “shrunken log2 fold change” value is -0.00776.
As for RRIRRRPPRLPRPRPRPGFNPRP, the “shrunken log2 fold change” value was 0.0515.
The figure for RRIRWRPPRLPRPRPRPLTGPRP is -0.396; for RRIRTRPPRLPRPRPRPTKSPRP it is 0.0353.
Regarding RRIRMRPPRLPRPRPRPSGYPRP, the “shrunken log2 fold change” value is -0.0299.
As for RRIRWRPPRLPRPRPRPCFAPRP, the “shrunken log2 fold change” value was 0.263.
Turning to RRIRCRPPRLPRPRPRPLEVPRP, the “shrunken log2 fold change” value is -0.174.
Consider RRIRDRPPRLPRPRPRPLCPPRP, for which the “shrunken log2 fold change” value is -0.00491.
Take RRIRCRPPRLPRPRPRPVVEPRP: the “shrunken log2 fold change” value was 0.0964.
Next, RRIRVRPPRLPRPRPRPHINPRP: -0.524; RRIRYRPPRLPRPRPRPKHFPRP: -0.327; RRIRRRPPRLPRPRPRPMSTPRP: 0.231.
With RRIRSRPPRLPRPRPRPYTDPRP, the “shrunken log2 fold change” value is -1.11.
RRIRLRPPRLPRPRPRPTYGPRP: the “shrunken log2 fold change” value is -0.0237.
Next, RRIRLRPPRLPRPRPRPKQPPRP: 0.119; RRIRERPPRLPRPRPRPGLNPRP: 0.127.
Take RRIRWRPPRLPRPRPRPKPSPRP: the “shrunken log2 fold change” value turned out to be 0.512.
Next, RRIRYRPPRLPRPRPRPYPQPRP: -0.466; RRIRNRPPRLPRPRPRPMHIPRP: -0.168; RRIRDRPPRLPRPRPRPYMPPRP: -0.517.
Turning to RRIRYRPPRLPRPRPRPFYEPRP, the “shrunken log2 fold change” value was -1.2.
As for RRIRARPPRLPRPRPRPYALPRP, the “shrunken log2 fold change” value is 0.0681.
For the sequence RRIRFRPPRLPRPRPRPAHKPRP, the “shrunken log2 fold change” value came out at 0.225.
Turning to RRIRPRPPRLPRPRPRPFCTPRP, the “shrunken log2 fold change” value is -0.00789.
For the sequence RRIRWRPPRLPRPRPRPCYPPRP, the “shrunken log2 fold change” value is -0.466.
On to RRIRWRPPRLPRPRPRPKNEPRP, for which the “shrunken log2 fold change” value was 0.177.
Regarding RRIRRRPPRLPRPRPRPWVLPRP, the “shrunken log2 fold change” value worked out at 0.0819.
Next, RRIRMRPPRLPRPRPRPSFNPRP: -0.535; RRIRLRPPRLPRPRPRPSAVPRP: -0.16.
For the sequence RRIRCRPPRLPRPRPRPQQCPRP, the “shrunken log2 fold change” value is -0.219.
Consider RRIRHRPPRLPRPRPRPMNLPRP, for which the “shrunken log2 fold change” value is -0.0351.
With RRIRCRPPRLPRPRPRPEPVPRP, the “shrunken log2 fold change” value was determined as 0.0937.
With RRIRLRPPRLPRPRPRPHGYPRP, the “shrunken log2 fold change” value is -0.528.
In the case of RRIRERPPRLPRPRPRPSVHPRP, the “shrunken log2 fold change” value was -0.329.
Regarding RRIRYRPPRLPRPRPRPMNQPRP, the “shrunken log2 fold change” value was -0.383.
Next, RRIRGRPPRLPRPRPRPIRQPRP: -0.0411; RRIRARPPRLPRPRPRPLNAPRP: 0.486; RRIRNRPPRLPRPRPRPAQNPRP: 0.861.
With RRIRRRPPRLPRPRPRPFAPPRP, the “shrunken log2 fold change” value worked out at 0.368.
In the case of RRIRGRPPRLPRPRPRPLLGPRP, the “shrunken log2 fold change” value was found to be 0.833.
The figure for RRIRFRPPRLPRPRPRPMEGPRP is -0.0345; for RRIRLRPPRLPRPRPRPPDKPRP it is 0.0844.
Next, RRIRHRPPRLPRPRPRPTEGPRP: -0.00285; RRIRHRPPRLPRPRPRPQHRPRP: -0.355.
Next, RRIRLRPPRLPRPRPRPWRLPRP: 0.0799; RRIRLRPPRLPRPRPRPFDCPRP: 0.00355; RRIRMRPPRLPRPRPRPYSRPRP: -0.253.
As to RRIRCRPPRLPRPRPRPKYVPRP, the “shrunken log2 fold change” value was -0.394.
As to RRIRSRPPRLPRPRPRPQKCPRP, the “shrunken log2 fold change” value was determined as 0.0984.
For RRIRGRPPRLPRPRPRPPWVPRP, the “shrunken log2 fold change” value amounted to 0.753.
For the sequence RRIRLRPPRLPRPRPRPDDFPRP, the “shrunken log2 fold change” value was -0.0359.
In the case of RRIRMRPPRLPRPRPRPMPGPRP, the “shrunken log2 fold change” value was 0.0377.
Regarding RRIRGRPPRLPRPRPRPNVRPRP, the “shrunken log2 fold change” value turned out to be 0.265.
Regarding RRIRERPPRLPRPRPRPCNIPRP, the “shrunken log2 fold change” value was -0.0405.
Turning to RRIRERPPRLPRPRPRPPCCPRP, the “shrunken log2 fold change” value was 0.00664.
Next, RRIRSRPPRLPRPRPRPGGLPRP: 0.177; RRIRCRPPRLPRPRPRPQIDPRP: -0.0788; RRIRIRPPRLPRPRPRPQLWPRP: 0.575.
Consider RRIRKRPPRLPRPRPRPVIIPRP, for which the “shrunken log2 fold change” value stood at 0.0356.
Take RRIRNRPPRLPRPRPRPATSPRP: the “shrunken log2 fold change” value was -0.214.
On to RRIRIRPPRLPRPRPRPAAYPRP, for which the “shrunken log2 fold change” value was -0.919.
For RRIRHRPPRLPRPRPRPAPIPRP, the “shrunken log2 fold change” value worked out at 0.31.
RRIRKRPPRLPRPRPRPWWSPRP: the “shrunken log2 fold change” value is -0.00415.
In the case of RRIRERPPRLPRPRPRPDSIPRP, the “shrunken log2 fold change” value was -0.042.
Regarding RRIRWRPPRLPRPRPRPLIDPRP, the “shrunken log2 fold change” value amounted to 0.00313.
Consider RRIRMRPPRLPRPRPRPHLYPRP, for which the “shrunken log2 fold change” value was -0.0224.
As to RRIRHRPPRLPRPRPRPLSEPRP, the “shrunken log2 fold change” value amounted to 0.203.
As for RRIRIRPPRLPRPRPRPMRHPRP, the “shrunken log2 fold change” value is 0.158.
RRIRMRPPRLPRPRPRPVIDPRP: the “shrunken log2 fold change” value amounted to 0.0403.
For the sequence RRIRLRPPRLPRPRPRPERSPRP, the “shrunken log2 fold change” value amounted to 0.293.
On to RRIRSRPPRLPRPRPRPHIAPRP, for which the “shrunken log2 fold change” value was -0.255.
In the case of RRIRTRPPRLPRPRPRPVRWPRP, the “shrunken log2 fold change” value was found to be 0.774.
On to RRIRYRPPRLPRPRPRPVFPPRP, for which the “shrunken log2 fold change” value was -0.0627.
Next, RRIRWRPPRLPRPRPRPWIPPRP: -0.0989.
The figure for RRIRDRPPRLPRPRPRPWPTPRP is 0.104.
As to RRIRTRPPRLPRPRPRPDALPRP, the “shrunken log2 fold change” value stood at 0.162.
Take RRIRYRPPRLPRPRPRPEIFPRP: the “shrunken log2 fold change” value was -0.159.
Regarding RRIRFRPPRLPRPRPRPKRQPRP, the “shrunken log2 fold change” value was 0.401.
Regarding RRIRPRPPRLPRPRPRPVKEPRP, the “shrunken log2 fold change” value was found to be 0.0267.
Consider RRIRQRPPRLPRPRPRPVYYPRP, for which the “shrunken log2 fold change” value came to 0.0771.
The figure for RRIRRRPPRLPRPRPRPYNPPRP is -0.348; for RRIRQRPPRLPRPRPRPALSPRP it is 0.217; for RRIRGRPPRLPRPRPRPHMSPRP it is 1.32.
Turning to RRIRSRPPRLPRPRPRPKTAPRP, the “shrunken log2 fold change” value amounted to 0.097.
Next, RRIRQRPPRLPRPRPRPTPLPRP: 0.487; RRIRLRPPRLPRPRPRPNCEPRP: -0.0439.
As to RRIRERPPRLPRPRPRPCNRPRP, the “shrunken log2 fold change” value is -0.0134.
In the case of RRIRARPPRLPRPRPRPQHFPRP, the “shrunken log2 fold change” value worked out at 3.55.
The figure for RRIRWRPPRLPRPRPRPFPEPRP is -0.145; for RRIRIRPPRLPRPRPRPMLCPRP it is -0.0741.
The figure for RRIRYRPPRLPRPRPRPLFGPRP is -0.0957.
Take RRIRSRPPRLPRPRPRPEPFPRP: the “shrunken log2 fold change” value was found to be 0.621.
Next, RRIRDRPPRLPRPRPRPRRNPRP: 0.225.
With RRIRWRPPRLPRPRPRPQLIPRP, the “shrunken log2 fold change” value was -0.153.
Take RRIRRRPPRLPRPRPRPFNQPRP: the “shrunken log2 fold change” value is -0.0554.
On to RRIRHRPPRLPRPRPRPVGIPRP, for which the “shrunken log2 fold change” value is -0.294.
Take RRIRPRPPRLPRPRPRPDQQPRP: the “shrunken log2 fold change” value was -0.0644.
Next, RRIRPRPPRLPRPRPRPGWKPRP: 0.269.
For RRIRSRPPRLPRPRPRPFNEPRP, the “shrunken log2 fold change” value was -0.19.
Consider RRIRERPPRLPRPRPRPTCMPRP, for which the “shrunken log2 fold change” value is -0.0554.
For the sequence RRIRGRPPRLPRPRPRPLDKPRP, the “shrunken log2 fold change” value was determined as 0.401.
As to RRIRLRPPRLPRPRPRPKFVPRP, the “shrunken log2 fold change” value was -0.055.
The figure for RRIRDRPPRLPRPRPRPCFVPRP is 0.0784; for RRIRFRPPRLPRPRPRPFYAPRP it is -0.542.
On to RRIRMRPPRLPRPRPRPFFQPRP, for which the “shrunken log2 fold change” value was -0.134.
In the case of RRIRQRPPRLPRPRPRPQPMPRP, the “shrunken log2 fold change” value worked out at 0.348.
For RRIRKRPPRLPRPRPRPDSAPRP, the “shrunken log2 fold change” value worked out at 0.115.
As to RRIRIRPPRLPRPRPRPLPWPRP, the “shrunken log2 fold change” value was -0.019.

The values are drawn from the supplement of paper PMC9112550, “Optimization of the antimicrobial peptide Bac7 by deep mutational scanning” (BMC Biology, 2022).
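Further: peptides expressed intracellularly from a pBAD plasmid library in pooled LB shake-flask culture, induced with 0.3% L-arabinose, DNA abundance read by NGS, three biological replicates, DESeq2 with apeglm shrinkage.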
